For assay [1], the target named is _(FITC)…, fluorescently labeled high-affinity peptide. Description: fluorescence polarisation. For orientation: Polarisation of emitted light reports the rotation of a fluorescent probe.
Assay [2] concerns the target chicken Tapasin (chTapasin), luminal domain (chicken (Gallus gallus)). Description: SPR. For orientation: In SPR one partner is held on a chip, and binding of the other changes the refractive index at the surface.
For assay [3] the target is unchanged. Briefly: NMR chemical shift perturbation.

Some results are limits rather than exact numbers.

What is called Kd is a measure of binding affinity in units of concentration. A low value points to a tighter complex.

“open B*37:01/chTapasin complex (empty) (from UniProt P61769 21-119)” returned a Kd in assay [1] of 5.5 nM.

“open HLA-B*37:01 (G120C)/β2m (H31C), UV-irradiated (empty) (from UniProt P61769 21-119) (complex)” gave a Kd in assay [2] of 1200 nM. Also, the lifetime of the complex in assay [3] is greater than 200 ms.

(Values after publication doi:10.1101/2023.06.23.546255.)
